Reference: publication PMC2809820

T1: Ets-1 (rhEts-1) (human, UniProt P14921 1-441)
T1 sequence: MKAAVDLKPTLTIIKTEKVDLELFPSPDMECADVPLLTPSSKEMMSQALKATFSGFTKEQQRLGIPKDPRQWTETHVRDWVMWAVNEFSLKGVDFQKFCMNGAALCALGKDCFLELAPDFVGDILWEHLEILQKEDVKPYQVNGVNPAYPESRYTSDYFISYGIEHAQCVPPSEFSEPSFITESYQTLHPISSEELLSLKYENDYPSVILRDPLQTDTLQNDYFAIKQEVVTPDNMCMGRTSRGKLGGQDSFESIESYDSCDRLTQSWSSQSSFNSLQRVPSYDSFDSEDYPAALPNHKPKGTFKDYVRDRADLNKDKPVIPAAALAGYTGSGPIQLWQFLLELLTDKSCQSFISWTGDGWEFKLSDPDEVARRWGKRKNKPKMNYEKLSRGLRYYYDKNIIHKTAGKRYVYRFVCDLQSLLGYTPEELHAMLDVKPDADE

B1: RHS5 (dsDNA)
DNA 1: GGTAACACAGGAAGTCAGCAG
DNA 2: CTGCTGACTTCCTGTGTTACC
B2: SC1_ETS1 (dsDNA)
DNA 1: CGGCCAAGCCGGAAGTGAGTGCC
DNA 2: GGCACTCACTTCCGGCTTGGCCG
B3: IL4P.2 (dsDNA)
DNA 1: TTTTCTCCTGGAAGAGAGGTG
DNA 2: CACCTCTCTTCCAGGAGAAAA
B4: IL4P.1 (dsDNA)
DNA 1: GATTTCACAGGAACATTTTAC
DNA 2: GTAAAATGTTCCTGTGAAATC
B5: IL13P (dsDNA)
DNA 1: GTTCGGGGAGGAAGTGGGTAG
DNA 2: CTACCCACTTCCTCCCCGAAC

Experiments:
Ets-1 (rhEts-1) [1] = target: T1, Ets-1 (rhEts-1); experiment: competition
Ets-1 (rhEts-1) [2] = target: T1, Ets-1 (rhEts-1); experiment: EMSA
Ets-1 (rhEts-1) [3] = target: T1, Ets-1 (rhEts-1); experiment: competition; remark: listed apart in the source

Binder | binding result (Ets-1 (rhEts-1) [1]) | binding result (Ets-1 (rhEts-1) [3]) | further results
B1 | binds | – | –
B2 | – | – | binding result (Ets-1 (rhEts-1) [2]): binds
B3 | – | no binding | –
B4 | – | no binding | –
B5 | binds | – | –
